Results taken from US20100196951.

Target: MazE antitoxin with the Thrombin-recognition sequence LVPRGS in place of VDGK at positions 38 to 41 (UniProt P0AE72)

For Biothinylated Thrombin (Novagen), the “removal of the MazE band on SDS-PAGE after overnight Thrombin treatment (0.01 to 0.08 units)” value was “the residual MazE protein was successfully removed from the purified MazF sample by Thrombin treatment (lanes 2 to 5)”.
